Reference: IntAct's records for PubMed 14532330

B1: Protein phosphatase 1 regulatory subunit 3C (Homo sapiens), Q9UQK1 (parent)
chain: MSCTRMIQVLDPRPLTSSVMPVDVAMRLCLAHSPPVKSFLGPYDEFQRRHFVNKLKPLKSCLNIKHKAKSQNDWKCSHNQAKKRVVFADSKGLSLTAIHVFSDLPEEPAWDLQFDLLDLNDISSALKHHEEKNLILDFPQPSTDYLSFRSHFQKNFVCLENCSLQERTVTGTVKVKNVSFEKKVQIRITFDSWKNYTDVDCVYMKNVYGGTDSDTFSFAIDLPPVIPTEQKIEFCISYHANGQVFWDNNDGQNYRIVHVQWKPDGVQTQMAPQDCAFHQTSPKTELESTIFGSPRLASGLFPEWQSWGRMENLASYR
partner: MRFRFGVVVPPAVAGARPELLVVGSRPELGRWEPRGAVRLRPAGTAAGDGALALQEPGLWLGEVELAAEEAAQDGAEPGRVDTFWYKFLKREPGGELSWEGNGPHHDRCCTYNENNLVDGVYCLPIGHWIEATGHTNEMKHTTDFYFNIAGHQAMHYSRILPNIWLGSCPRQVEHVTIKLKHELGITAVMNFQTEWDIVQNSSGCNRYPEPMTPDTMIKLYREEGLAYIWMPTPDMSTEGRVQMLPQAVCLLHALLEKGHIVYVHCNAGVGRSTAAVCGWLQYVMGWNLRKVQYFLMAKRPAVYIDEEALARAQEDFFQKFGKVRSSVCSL
B2: Laforin (Homo sapiens), O95278 (parent)
chain: B1 partner
partner: B1 chain

Variants of: B1
Settings: with epm2a_human EPM2A

effect of a mutation on the interaction | Variant
disrupting interaction | D247A;D250A

Variants of: B2
Settings: with ppr3c_human PPP1R3C

effect of a mutation on the interaction | Variant
disrupting interaction | W32G
decreasing interaction | G240S
disrupting interaction | T194I
increasing interaction | C266S
disrupting interaction | P301L
disrupting interaction | Q293L
disrupting interaction | Y294N
disrupting interaction | F84L
decreasing interaction | G279S
disrupting interaction | R108C
